{"source": "the nanobody polyreactivity screen of Harvey et al. (2022)", "data": [{"test": "yeast display, Sf9 membrane polyspecificity reagent, FACS + sequencing; frameworks hold sequencing errors", "in_short": "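A synthetic nanobody library was expressed on Saccharomyces cerevisiae BJ5465 by galactose induction for 36–48 hours. The library was stained for 1 hour at 4 °C with 10% biotinylated, detergent-solubilized Sf9 membrane reagent and enriched with streptavidin microbeads before FACS. Low and high (top ~1%) gates were set on anti-HA fluorescence for expression and streptavidin fluorescence for reagent binding, and each polyreactivity label reflects the gate of origin.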", "values": [{"sequence": "QVQLVESGGGLVQAGGSLRLSCAASGSTFEPNAMGWYRQAPGKERELVAAIDTDASTYYADSVKGRFTISRDNAKNTVYLQMNSLKPEDTAVYYCAADYYIAITYYDGDDYWGQGTQVTVSS", "polyreactivity (PSR sort gate)": "low polyreactivity"}, {"sequence": "QVQLVESGGGLVQAGGSLRLSCAASGSTFEPNGMGWYRQAPGKETELVAVITSGRTNYADSVKGSFTISRDNAKNTVYLQMNSLKPEDTAVYYCNAEGNGIYDYWGQGTQVTVSS", "polyreactivity (PSR sort gate)": "low polyreactivity"}, {"sequence": "QVQLVESGGGLVQAGGSLRLSCAASGSTFEQNAMGWYRPAPGKEREFVAAITGSGGSTYYADSVKGRFTISRDNAKNTVYLQMNSMKPEDTAVYYCAADIQDGWYWWDIYDYWGQGTQVTVSS", "polyreactivity (PSR sort gate)": "low polyreactivity"}, {"sequence": "QVQLVESGGGLVQAGGSLRLSCAASGSTFERYAMGWYRQEPGKEREFVAAISAIGDSTYYADSVKGRFTITRDNAKNTVYLQMNILKPEDTAVYYCAARYTPYHIGRGYYYWGQGTQVTVSS", "polyreactivity (PSR sort gate)": "high polyreactivity"}, {"sequence": "QVQLVESGGGLVQAGGSLRLSCAASGSTFETNAMGWYRQAPGKERELVAAIRWSTGNTYYADSVKGRFTISRDNAKNTVYLQMNSLKPEDTAVYDCAAYKGKHDKEGYWGQGTQVTVSS", "polyreactivity (PSR sort gate)": "low polyreactivity"}, {"sequence": "QVQLVESGGGLVQAGGSLRLSCAASGSTFETYAMGWYRQAPGKERELVATISLSGGRTYYADSVKGRFTISRDNAKNTVYLQMNSLKPEDTAVYYCNADGYGNVGGGDSWGQGTQVTVSS", "polyreactivity (PSR sort gate)": "low polyreactivity"}, {"sequence": "QVQLVESGGGLVQAGGSLRLSCAASGSTFEVYAMGWYRQAPGKERELVAAINSRGTSTYYADSVKGRFTISRDNAKNTVYLQMNSLKPEDTAVYYCNAVRDWGPSQVYDGMDYWGQGTQVTVSS", "polyreactivity (PSR sort gate)": "low polyreactivity"}, {"sequence": "QVQLVESGGGLVQAGGSLRLSCAASGSTFEYNAMGWYRQAPGKERELVASSTNYADSVKGRFTISRDNAKNTVYFQMNSLKPEDTAVYYCAREQGVNRNNDYWGQGTQVTVSS", "polyreactivity (PSR sort gate)": "low polyreactivity"}, {"sequence": "QVQLVESGGGLVQAGGSLRLSCAASGSTFEYNAMGWYRQAPGKERELVASSTNYADSVKGRFTISRDNAKNTVYLQMNSLKPEDTAVYYCAREQGVNRNHDYRGQGTQVTVSS", "polyreactivity (PSR sort gate)": "low polyreactivity"}, {"sequence": "QVQLVESGGGLVQAGGSLRLSCAASGSTFEYYVMGWYRQAPGKERELVAAISGSGGGTYYADSVKGRFTISRDNEKNTVYLQMNSLKPEDTAVYYCAAVATQEKYDYWGQGTQVTVSS", "polyreactivity (PSR sort gate)": "low polyreactivity"}, {"sequence": "QVQLVESGGGLVQAGGSLRLSCAASGSTFFDYAMGWYRQAPGKERELVAAISSGGSTKYADSVKGRFTISRDNAKNTVYLQMNSLKPEDTAVYYCAATRWNGRRGYGYWGQGTQVTVSS", "polyreactivity (PSR sort gate)": "high polyreactivity"}, {"sequence": "QVQLVESGGGLVQAGGSLRLSCAASGSTFFGNAMGWYRQAPGKERELVAAITSGGSTNYADSVKGRFTISRDNAKNTVYFQMNSLKPEDTAVYYCAKPSRWGWTGFYAYDYWGQGTQVTVSS", "polyreactivity (PSR sort gate)": "low polyreactivity"}, {"sequence": "QVQLVESGGGLVQAGGSLRLSCAASGSTFFGNAMGWYRQAPGKERELVAAITSGGSTNYADSVKGRFTISRDNAKNTVYLQMNSLKPEDTAVYYCAKPSRWGWTGFYAYDYWGQGTQVTVSS", "polyreactivity (PSR sort gate)": "low polyreactivity"}, {"sequence": "QVQLVESGGGLVQAGGSLRLSCAASGSTFFGYAMGWYRQAPGKERELVATISSGDSTNYADSVKGRFTISRDNAKNTVYLQMNSLKPEDTAVYYCAAQGGDGVLALYYYWGQGTQVTVSS", "polyreactivity (PSR sort gate)": "low polyreactivity"}, {"sequence": "QVQLVESGGGLVQAGGSLRLSCAASGSTFFGYVMGWDRQAPGKERELVAAIRSSGGSTYYADSVKGRFTISRDNAKNTVYLQINSLKPEDTAVYYCAASYRYDAYSHYDYWGQGTQVTVSS", "polyreactivity (PSR sort gate)": "low polyreactivity"}, {"sequence": "QVQLVESGGGLVQAGGSLRLSCAASGSTFFHYARGWYRQAPGKERELVAAISGSGGSTYYADSVKGRFTISRDNAKNTVYLQMNSLKPEDTAVYYCNARVWHYTSRTTFDYWGQGTQVTVSS", "polyreactivity (PSR sort gate)": "low polyreactivity"}, {"sequence": "QVQLVESGGGLVQAGGSLRLSCAASGSTFFKNAMGWYRQAPGKERELVAAISTGGGSTTYADSVKGRFTISRDNAKNTVYLQMNSLKPEDTAVYYCAAVTLSSTYGGHDYWGQGTQVTVSS", "polyreactivity (PSR sort gate)": "high polyreactivity"}, {"sequence": "QVQLVESGGGLVQAGGSLRLSCAASGSTFFKYDMGWYRQAPGKDRELVAVITWSGGTTFYADSVKGRFTFSRDNAKNTVYLQMNSLKPEDTAVYYGAADYYGYRYDYWGQGTQVTVSS", "polyreactivity (PSR sort gate)": "low polyreactivity"}, {"sequence": "QVQLVESGGGLVQAGGSLRLSCAASGSTFFLYDKGWYRQAPGKERELVAAITLSGGSTYYADSVKGRFTISRDNAKNTVYLQMNSLNPEDTAVYYCADKRHGSEVGRGRDYWGQGTQVTVSS", "polyreactivity (PSR sort gate)": "high polyreactivity"}, {"sequence": "QVQLVESGGGLVQAGGSLRLSCAASGSTFFLYGMGWYRQAPGKERELVAAITWNGGSTYYADSVKGRFTISRDNAKNTVYLQMNSLKPEDTAVYYCAADYYGYFSTPYDYWGQGTQVTVSS", "polyreactivity (PSR sort gate)": "low polyreactivity"}, {"sequence": "QVQLVESGGGLVQAGGSLRLSCAASGSTFFNYAMGLYRQAPGKERELVAAITSVGSTYYADSVKGRFTISRDNAKYTVYLQMNSLKPEDTAVYYCNAESYFWDFYDYDHWGQGTQVTVSS", "polyreactivity (PSR sort gate)": "low polyreactivity"}, {"sequence": "QVQLVESGGGLVQAGGSLRLSCAASGSTFFPNAMGWYRQAPGKERELIADISISGGSTRYADSVKGRFTISRDNEKNTVYLQMNSLKPEDTAVYYCAVRRSAFYARFGRNYWGQGTQVTVSS", "polyreactivity (PSR sort gate)": "low polyreactivity"}, {"sequence": "QVQLVESGGGLVQAGGSLRLSCAASGSTFFPYAMGWYRQAPGKERELVADITYSGASTYYADSVKGRFTISRDNAKNTVYLQMNSLKPEDTAVYYCAALVWYGYYSLGQGTQVTVSS", "polyreactivity (PSR sort gate)": "low polyreactivity"}, {"sequence": "QVQLVESGGGLVQAGGSLRLSCAASGSTFFPYAMGWYRQAPGKVRELVAAIRWSGGRTYYADSVKGRFTISRDNPKNTVFLQMNSLKPEDTAVYYCNGYSVYVRGEYWGQGTQVTVSS", "polyreactivity (PSR sort gate)": "high polyreactivity"}, {"sequence": "QVQLVESGGGLVQAGGSLRLSCAASGSTFFQYAMGWYRQAPGKERELVAAITSGGSTNYADSVKGRFTISRDNAKNTVYLQMNSLKPEDTAVYYCAAESKSGAFDYWGQGTQVTVSS", "polyreactivity (PSR sort gate)": "low polyreactivity"}, {"sequence": "QVQLVESGGGLVQAGGSLRLSCAASGSTFFRYAMGWYRQAPGKEREFVAAITSSGGNTYYADSVKGRFTISRDNAKNTVYLQMNSLKPEDTAVYYCAAVWYSPYVKYNYWGQGTQVTVSS", "polyreactivity (PSR sort gate)": "low polyreactivity"}, {"sequence": "QVQLVESGGGLVQAGGSLRLSCAASGSTFFRYAMGWYRQAPGKERELVAAISASGGRTYYADSVKGRFTISRDNAKNTVYLQMNSLKPEDTAVYYCNRQYGPYQYYYWGQGTQVTVSS", "polyreactivity (PSR sort gate)": "high polyreactivity"}, {"sequence": "QVQLVESGGGLVQAGGSLRLSCAASGSTFFRYAMGWYRQAPGKERELVAAISKSGASTYYADSVKGRFTISRDNAKNTVYLQMNSLNPEDTAVYYCNADVKKSSAREWQYGYDYWGQGTQVTVSS", "polyreactivity (PSR sort gate)": "low polyreactivity"}, {"sequence": "QVQLVESGGGLVQAGGSLRLSCAASGSTFFRYAMGWYRQAPGKERELVAAISWSGGTTYYADSVKGRFTISRDNAKNTVYLQMNSLKPEDTAVYYCAVDGGRWGQGTQVTVSS", "polyreactivity (PSR sort gate)": "low polyreactivity"}, {"sequence": "QVQLVESGGGLVQAGGSLRLSCAASGSTFFRYAMGWYRQAPGKERELVAAITSGGNTYYADSVKGRFTISRDNAKNTVYLQMNSLKPEDSAVYYCAADVYHWIHEYDYWGQGTQVTVSS", "polyreactivity (PSR sort gate)": "low polyreactivity"}]}]}
